Publication PMC2843741

Biological target: GST-CypA (UniProt P62937)
Assay: pull-down; 35S-labelled in vitro translated proteins incubated overnight in binding buffer with about 2.0 µg purified GST fusion or GST alone; glutathione Sepharose beads; 5 washes with PBS, 0.25% NP-40; SDS-10% PAGE, fluorography

UniProt P62937, sequence (P62937 whole entry, the tested form may be a part): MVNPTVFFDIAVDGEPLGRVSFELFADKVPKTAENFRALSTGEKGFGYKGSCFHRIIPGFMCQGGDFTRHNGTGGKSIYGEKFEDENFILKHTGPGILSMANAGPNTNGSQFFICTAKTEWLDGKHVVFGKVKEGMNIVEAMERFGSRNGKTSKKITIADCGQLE

| Substance | percent of input pulled down |
| --- | --- |
| HA-wt NS5A with in-frame deletion of amino acids 271-360 (domain or fragment) | 8 to 9 % of input |
| HA-wt NS5A with in-frame deletion of amino acids 361-451 (domain or fragment) | 5 % of input |
